From paper PMC7763993, “Depletion of Boric Acid and Cobalt from Cultivation Media: Impact on Recombinant Protein Production with Komagataella phaffii” (Bioengineering, 2020)

Substrate: CCn1c(=NN=c2sc3cc(S(=O)(=O)O)ccc3n2CC)sc2cc(S(=O)(=O)O)ccc21
Experiment: purified protein
Format: biochemical, Armoracia rusticana
Settings: H2O2 co-substrate, 50 mM phosphate citrate pH 5, 30 °C, 0.05-7 mM ABTS, enzyme from cultivation F5 (glass, with Co and boric acid)

B1: horseradish peroxidase isoenzyme A2A (HRP) (Armoracia rusticana) (protein)
chain: QLNATFYSGTCPNASAIVRSTIQQAFQSDTRIGASLIRLHFHDCFVDGCDASILLDDSGSIQSEKNAGPNANSARGFNVVDNIKTALENTCPGVVSCSDILALASEASVSLTGGPSWTVLLGRRDSLTANLAGANSAIPSPFEGLSNITSKFSAVGLNTNDLVALSGAHTFGRARCGVFNNRLFNFSGTNGPDPTLNSTLLSSLQQLCPQNGSASTITNLDLSTPDAFDNNYFANLQSNNGLLQSDQELFSTLGSATIAVVTSFASNQTLFFQAFAQSMINMGNISPLTGSNGEIRLDCKKVDGS
notes: secreted from K. phaffii BSYBG11 MutS, codon-optimized gene; glycosylated, negative AIEX flow-through; monomeric, 2 calcium, heme
Km: 2110 ± 350 µM
